# B1: Transcriptional regulator ERG (Homo sapiens), P11308-1 (parent)
# chain: MIQTVPDPAAHIKEALSVVSEDQSLFECAYGTPHLAKTEMTASSSSDYGQTSKMSPRVPQQDWLSQPPARVTIKMECNPSQVNGSRNSPDECSVAKGGKMVGSPDTVGMNYGSYMEEKHMPPPNMTTNERRVIVPADPTLWSTDHVRQWLEWAVKEYGLPDVNILLFQNIDGKELCKMTKDDFQRLTPSYNADILLSHLHYLRETPLPHLTSDDVDKALQNSPRLMHARNTDLPYEPPRRSAWTGHGHPTPQSKAAQPSPSTVPKTEDQRPQLDPYQILGPTSSRLANPGSGQIQLWQFLLELLSDSSNSSCITWEGTNGEFKMTDPDEVARRWGERKSKPNMNYDKLSRALRYYYDKNIMTKVHGKRYAYKFDFHGIAQALQPHPPESSLYKYPSDLPYMGSYHAHPQKMNFVAPHPPALPVTSSSFFAAPNPYWNSPTGGIYPNTRLPTSHMPSHLGTYY
# Variants of: B1
# Details: with prkdc_human PRKDC
row,effect of a mutation on the interaction,Variant
1,disrupting interaction,MIQTVPDPAAHIKEALSVVSEDQSLFECAYGTPHLAKTEMTASSSSDYGQTSKMSPRVPQQDWLSQPPARVTIKMECNPSQVNGSRNSPDECSVAKGGKMVGSPDTVGMNYGSYMEEKHMPPPNMTTNERRVIVPADPTLWSTDHVRQWLEWAVKEYGLPDVNILLFQNIDGKELCKMTKDDFQRLTPSYNADILLSHLHYLRETPLPHLTSDDVDKALQNSPRLMHARNTDLPYEPPRRSAWTGHGHPTPQSKAAQPSPSTVPKTEDQRPQLDPYQILGPTSSRLANPGSGQIQLWQFLLELLSDSSNSSCITWEGTNGEFKMTDPDEVARRWGERKSKPNMNYDKLSRALRYYADKNIMTKVHGKRYAYKFDFHGIAQALQPHPPESSLYKYPSDLPYMGSYHAHPQKMNFVAPHPPALPVTSSSFFAAPNPYWNSPTGGIYPNTRLPTSHMPSHLGTYY [Y356A]

# Reference: IntAct's records for PubMed 21575865
